Data taken from patent US20170296617.

Experiments:
Pep25-P2 (ERTYSPS) = molecular target: T1, Pep25-P2 (ERTYSPS)
T1 chain: ERTYSPS

peptide25 (ERTYSPSTAVRS) = molecular target: T2, peptide25 (ERTYSPSTAVRS)
T2 chain: ERTYSPSTAVRS

Protein | [S6] phosphorylation ratio (pS6 peak area over pS6 plus S6), mass spectrometry of the ROCK reaction with substrate S6 (Pep25-P2 (ERTYSPS)) | conversion ratio of phosphorylated S6 substrate (mass spectrometry) (Pep25-P2 (ERTYSPS)) | ROCK autophosphorylation under high ATP levels (1 mM) (peptide25 (ERTYSPSTAVRS))
ROCK1 (protein) MSTGDSFETRFEKMDNLLRDPKSEVNSDCLLDGLDALVYDLDFPALRKNKNIDNFLSRYKDTINKIRDLRMKAEDYEVVKVIGRGAFGEVQLVRHKSTRKVYAMKLLSKFEMIKRSDSAFFWEERDIMAFANSPWVVQLFYAFQDDRYLYMVMEYMPGGDLVNLMSNYDVPEKWARFYTAEVVLALDAIHSMGFIHRDVKPDNMLLDKSGHLKLADFGTCMKMNKEGMVRCDTAVGTPDYISPEVLKSQGGDGYYGRECDWWSVGVFLYEMLVGDTPFYADSLVGTYSKIMNHKNSLTFPDDNDISKEAKNLICAFLTDREVRLGRNGVEEIKRHLFFKNDQWAWETLRDTVAPVVPDLSSDIDTSNFDDLEEDKGEEETFPIPKAFVGNQLPFVGFTYYSNRRYLSSANPNDNRTSSNADKSLQESLQKTIYKLEEQLHNEMQLKDEMEQKCRTSNIKLDKIMKELDEEGNQRRNLESTVSQIEKEKMLLQHRINEYQRKAEQENEKRRNVENEVSTLKDQLEDLKKVSQNSQLANEKLSQLQKQLEEANDL | ratio falls with the dose: about 31 at 1 uM, about 29 at 10 uM, about 22 at 30 uM, about 18 at 100 uM; no lower plateau, less than half suppressed at 100 uM; the pS6 peak near m/z 3710 shrinks from 1 uM to 100 uM in the four spectra | Pep25-P2 repressed the phosphorylation of substrate S6 by ROCK | –
MBP-ROCK1 (ROCK1 catalytic domain linked to maltose binding protein) (protein) MSTGDSFETRFEKMDNLLRDPKSEVNSDCLLDGLDALVYDLDFPALRKNKNIDNFLSRYKDTINKIRDLRMKAEDYEVVKVIGRGAFGEVQLVRHKSTRKVYAMKLLSKFEMIKRSDSAFFWEERDIMAFANSPWVVQLFYAFQDDRYLYMVMEYMPGGDLVNLMSNYDVPEKWARFYTAEVVLALDAIHSMGFIHRDVKPDNMLLDKSGHLKLADFGTCMKMNKEGMVRCDTAVGTPDYISPEVLKSQGGDGYYGRECDWWSVGVFLYEMLVGDTPFYADSLVGTYSKIMNHKNSLTFPDDNDISKEAKNLICAFLTDREVRLGRNGVEEIKRHLFFKNDQWAWETLRDTVAPVVPDLSSDIDTSNFDDLEEDKGEEETFPIPKAFVGNQLPFVGFTYYSNRRYLSSANPNDNR | – | – | blocked ROCK autophosphorylation
